Source: US20170240920A1

Molecular target: RQR8
Test: cell-based or functional assay

With “clinical grade human-rituximab (antibody)” the eGFP positive cells in the sorted fraction (K562 cells, human rituximab on protein-A beads) was 89.4%, the transduced target cells with LV sorted with beads (RDpro pseudotyped LV) was 14.1% and the transduced target cells with the purified fraction (VSV-G pseudotyped LV) was 73.6%.
